Source: patent US20140087995A1 (published 2014)
Numbered stars: 1 amine (or outer) side, 2 acyl side, 3 side chain; on linkers, the order of the positions; unused ones are H or OH. Bridge positions count the residues as written; N and C are the ends. Side chains are listed from the residue outwards. Ends that are not written are not given here. * marks the point of attachment. C20 diacid = O=C(O)CCCCCCCCCCCCCCCCCCC(=O)*; γGlu = O=C(O)[C@H](CCC(=O)[*:2])N[*:1]; AEEA = NCCOCCOCC(=O)O

B1: N^ε1-[2-[2-[2-[[(4S)-4-carboxy-4-(19-carboxynonadecanoylamino)butanoyl]amino]ethoxy]ethoxy]acetyl]-[Arg17,Pro21,Pro27,Arg34]-h-amylin (peptide)
peptide: K([AEEA-γGlu-C20 diacid])CNTATCATQRLANFLRHSSPNFGAIPSSTNVGRNTY-NH2
modifications: disulfide 2-7; N-terminus assumed
SMILES: CC[C@H](C)[C@H](NC(=O)[C@H](C)NC(=O)CNC(=O)[C@H](Cc1ccccc1)NC(=O)[C@H](CC(N)=O)NC(=O)[C@@H]1CCCN1C(=O)[C@H](CO)NC(=O)[C@H](CO)NC(=O)[C@H](Cc1c[nH]cn1)NC(=O)[C@H](CCCNC(=N)N)NC(=O)[C@H](CC(C)C)NC(=O)[C@H](Cc1ccccc1)NC(=O)[C@H](CC(N)=O)NC(=O)[C@H](C)NC(=O)[C@H](CC(C)C)NC(=O)[C@H](CCCNC(=N)N)NC(=O)[C@H](CCC(N)=O)NC(=O)[C@@H](NC(=O)[C@H](C)NC(=O)[C@@H]1CSSC[C@H](NC(=O)[C@@H](N)CCCCNC(=O)COCCOCCNC(=O)CC[C@H](NC(=O)CCCCCCCCCCCCCCCCCCC(=O)O)C(=O)O)C(=O)N[C@@H](CC(N)=O)C(=O)N[C@@H]([C@@H](C)O)C(=O)N[C@@H](C)C(=O)N[C@@H]([C@@H](C)O)C(=O)N1)[C@@H](C)O)C(=O)N1CCC[C@H]1C(=O)N[C@@H](CO)C(=O)N[C@@H](CO)C(=O)N[C@H](C(=O)N[C@@H](CC(N)=O)C(=O)N[C@H](C(=O)NCC(=O)N[C@@H](CCCNC(=N)N)C(=O)N[C@@H](CC(N)=O)C(=O)N[C@H](C(=O)N[C@@H](Cc1ccc(O)cc1)C(N)=O)[C@@H](C)O)C(C)C)[C@@H](C)O
notes: also called compound 78
B2: N^ε1-[2-[2-[2-[[(4S)-4-carboxy-4-(19-carboxynonadecanoylamino)butanoyl]amino]ethoxy]ethoxy]acetyl]-[His14,Arg17,Pro21,Pro27,His34]-h-amylin (peptide)
peptide: K([AEEA-γGlu-C20 diacid])CNTATCATQRLAHFLRHSSPNFGAIPSSTNVGHNTY-NH2
modifications: disulfide 2-7; N-terminus assumed
SMILES: CC[C@H](C)[C@H](NC(=O)[C@H](C)NC(=O)CNC(=O)[C@H](Cc1ccccc1)NC(=O)[C@H](CC(N)=O)NC(=O)[C@@H]1CCCN1C(=O)[C@H](CO)NC(=O)[C@H](CO)NC(=O)[C@H](Cc1c[nH]cn1)NC(=O)[C@H](CCCNC(=N)N)NC(=O)[C@H](CC(C)C)NC(=O)[C@H](Cc1ccccc1)NC(=O)[C@H](Cc1c[nH]cn1)NC(=O)[C@H](C)NC(=O)[C@H](CC(C)C)NC(=O)[C@H](CCCNC(=N)N)NC(=O)[C@H](CCC(N)=O)NC(=O)[C@@H](NC(=O)[C@H](C)NC(=O)[C@@H]1CSSC[C@H](NC(=O)[C@@H](N)CCCCNC(=O)COCCOCCNC(=O)CC[C@H](NC(=O)CCCCCCCCCCCCCCCCCCC(=O)O)C(=O)O)C(=O)N[C@@H](CC(N)=O)C(=O)N[C@@H]([C@@H](C)O)C(=O)N[C@@H](C)C(=O)N[C@@H]([C@@H](C)O)C(=O)N1)[C@@H](C)O)C(=O)N1CCC[C@H]1C(=O)N[C@@H](CO)C(=O)N[C@@H](CO)C(=O)N[C@H](C(=O)N[C@@H](CC(N)=O)C(=O)N[C@H](C(=O)NCC(=O)N[C@@H](Cc1c[nH]cn1)C(=O)N[C@@H](CC(N)=O)C(=O)N[C@H](C(=O)N[C@@H](Cc1ccc(O)cc1)C(N)=O)[C@@H](C)O)C(C)C)[C@@H](C)O
notes: also called compound 80
B3: N^ε1-[2-[2-[2-[[(4S)-4-carboxy-4-(19-carboxynonadecanoylamino)butanoyl]amino]ethoxy]ethoxy]acetyl]-[Arg17,Pro21,Pro27,His34]-h-amylin (peptide)
peptide: K([AEEA-γGlu-C20 diacid])CNTATCATQRLANFLRHSSPNFGAIPSSTNVGHNTY-NH2
modifications: disulfide 2-7; N-terminus assumed
SMILES: CC[C@H](C)[C@H](NC(=O)[C@H](C)NC(=O)CNC(=O)[C@H](Cc1ccccc1)NC(=O)[C@H](CC(N)=O)NC(=O)[C@@H]1CCCN1C(=O)[C@H](CO)NC(=O)[C@H](CO)NC(=O)[C@H](Cc1c[nH]cn1)NC(=O)[C@H](CCCNC(=N)N)NC(=O)[C@H](CC(C)C)NC(=O)[C@H](Cc1ccccc1)NC(=O)[C@H](CC(N)=O)NC(=O)[C@H](C)NC(=O)[C@H](CC(C)C)NC(=O)[C@H](CCCNC(=N)N)NC(=O)[C@H](CCC(N)=O)NC(=O)[C@@H](NC(=O)[C@H](C)NC(=O)[C@@H]1CSSC[C@H](NC(=O)[C@@H](N)CCCCNC(=O)COCCOCCNC(=O)CC[C@H](NC(=O)CCCCCCCCCCCCCCCCCCC(=O)O)C(=O)O)C(=O)N[C@@H](CC(N)=O)C(=O)N[C@@H]([C@@H](C)O)C(=O)N[C@@H](C)C(=O)N[C@@H]([C@@H](C)O)C(=O)N1)[C@@H](C)O)C(=O)N1CCC[C@H]1C(=O)N[C@@H](CO)C(=O)N[C@@H](CO)C(=O)N[C@H](C(=O)N[C@@H](CC(N)=O)C(=O)N[C@H](C(=O)NCC(=O)N[C@@H](Cc1c[nH]cn1)C(=O)N[C@@H](CC(N)=O)C(=O)N[C@H](C(=O)N[C@@H](Cc1ccc(O)cc1)C(N)=O)[C@@H](C)O)C(C)C)[C@@H](C)O
notes: also called compound 76
B4: N^ε1-[2-[2-[2-[[(4S)-4-carboxy-4-(19-carboxynonadecanoylamino)butanoyl]amino]ethoxy]ethoxy]acetyl]-[His14,Arg17,Pro21,Pro27,Arg34]-h-amylin (peptide)
peptide: K([AEEA-γGlu-C20 diacid])CNTATCATQRLAHFLRHSSPNFGAIPSSTNVGRNTY-NH2
modifications: disulfide 2-7; N-terminus assumed
SMILES: CC[C@H](C)[C@H](NC(=O)[C@H](C)NC(=O)CNC(=O)[C@H](Cc1ccccc1)NC(=O)[C@H](CC(N)=O)NC(=O)[C@@H]1CCCN1C(=O)[C@H](CO)NC(=O)[C@H](CO)NC(=O)[C@H](Cc1c[nH]cn1)NC(=O)[C@H](CCCNC(=N)N)NC(=O)[C@H](CC(C)C)NC(=O)[C@H](Cc1ccccc1)NC(=O)[C@H](Cc1c[nH]cn1)NC(=O)[C@H](C)NC(=O)[C@H](CC(C)C)NC(=O)[C@H](CCCNC(=N)N)NC(=O)[C@H](CCC(N)=O)NC(=O)[C@@H](NC(=O)[C@H](C)NC(=O)[C@@H]1CSSC[C@H](NC(=O)[C@@H](N)CCCCNC(=O)COCCOCCNC(=O)CC[C@H](NC(=O)CCCCCCCCCCCCCCCCCCC(=O)O)C(=O)O)C(=O)N[C@@H](CC(N)=O)C(=O)N[C@@H]([C@@H](C)O)C(=O)N[C@@H](C)C(=O)N[C@@H]([C@@H](C)O)C(=O)N1)[C@@H](C)O)C(=O)N1CCC[C@H]1C(=O)N[C@@H](CO)C(=O)N[C@@H](CO)C(=O)N[C@H](C(=O)N[C@@H](CC(N)=O)C(=O)N[C@H](C(=O)NCC(=O)N[C@@H](CCCNC(=N)N)C(=O)N[C@@H](CC(N)=O)C(=O)N[C@H](C(=O)N[C@@H](Cc1ccc(O)cc1)C(N)=O)[C@@H](C)O)C(C)C)[C@@H](C)O
notes: also called compound 84
B5: N^ε1-[2-[2-[2-[[(4S)-4-carboxy-4-(19-carboxynonadecanoylamino)butanoyl]amino]ethoxy]ethoxy]acetyl]-[His14,Arg17,Pro21,Pro27,Pro31]-h-amylin (peptide)
peptide: K([AEEA-γGlu-C20 diacid])CNTATCATQRLAHFLRHSSPNFGAIPSSTPVGSNTY-NH2
modifications: disulfide 2-7; N-terminus assumed
SMILES: CC[C@H](C)[C@H](NC(=O)[C@H](C)NC(=O)CNC(=O)[C@H](Cc1ccccc1)NC(=O)[C@H](CC(N)=O)NC(=O)[C@@H]1CCCN1C(=O)[C@H](CO)NC(=O)[C@H](CO)NC(=O)[C@H](Cc1c[nH]cn1)NC(=O)[C@H](CCCNC(=N)N)NC(=O)[C@H](CC(C)C)NC(=O)[C@H](Cc1ccccc1)NC(=O)[C@H](Cc1c[nH]cn1)NC(=O)[C@H](C)NC(=O)[C@H](CC(C)C)NC(=O)[C@H](CCCNC(=N)N)NC(=O)[C@H](CCC(N)=O)NC(=O)[C@@H](NC(=O)[C@H](C)NC(=O)[C@@H]1CSSC[C@H](NC(=O)[C@@H](N)CCCCNC(=O)COCCOCCNC(=O)CC[C@H](NC(=O)CCCCCCCCCCCCCCCCCCC(=O)O)C(=O)O)C(=O)N[C@@H](CC(N)=O)C(=O)N[C@@H]([C@@H](C)O)C(=O)N[C@@H](C)C(=O)N[C@@H]([C@@H](C)O)C(=O)N1)[C@@H](C)O)C(=O)N1CCC[C@H]1C(=O)N[C@@H](CO)C(=O)N[C@@H](CO)C(=O)N[C@H](C(=O)N1CCC[C@H]1C(=O)N[C@H](C(=O)NCC(=O)N[C@@H](CO)C(=O)N[C@@H](CC(N)=O)C(=O)N[C@H](C(=O)N[C@@H](Cc1ccc(O)cc1)C(N)=O)[C@@H](C)O)C(C)C)[C@@H](C)O
notes: also called compound 61
B6: N^ε1-[2-[2-[2-[[(4S)-4-carboxy-4-(19-carboxynonadecanoylamino)butanoyl]amino]ethoxy]ethoxy]acetyl]-[Gly14,Arg17,Pro21,Pro27,Pro31]-h-amylin (peptide)
peptide: K([AEEA-γGlu-C20 diacid])CNTATCATQRLAGFLRHSSPNFGAIPSSTPVGSNTY-NH2
modifications: disulfide 2-7; N-terminus assumed
SMILES: CC[C@H](C)[C@H](NC(=O)[C@H](C)NC(=O)CNC(=O)[C@H](Cc1ccccc1)NC(=O)[C@H](CC(N)=O)NC(=O)[C@@H]1CCCN1C(=O)[C@H](CO)NC(=O)[C@H](CO)NC(=O)[C@H](Cc1c[nH]cn1)NC(=O)[C@H](CCCNC(=N)N)NC(=O)[C@H](CC(C)C)NC(=O)[C@H](Cc1ccccc1)NC(=O)CNC(=O)[C@H](C)NC(=O)[C@H](CC(C)C)NC(=O)[C@H](CCCNC(=N)N)NC(=O)[C@H](CCC(N)=O)NC(=O)[C@@H](NC(=O)[C@H](C)NC(=O)[C@@H]1CSSC[C@H](NC(=O)[C@@H](N)CCCCNC(=O)COCCOCCNC(=O)CC[C@H](NC(=O)CCCCCCCCCCCCCCCCCCC(=O)O)C(=O)O)C(=O)N[C@@H](CC(N)=O)C(=O)N[C@@H]([C@@H](C)O)C(=O)N[C@@H](C)C(=O)N[C@@H]([C@@H](C)O)C(=O)N1)[C@@H](C)O)C(=O)N1CCC[C@H]1C(=O)N[C@@H](CO)C(=O)N[C@@H](CO)C(=O)N[C@H](C(=O)N1CCC[C@H]1C(=O)N[C@H](C(=O)NCC(=O)N[C@@H](CO)C(=O)N[C@@H](CC(N)=O)C(=O)N[C@H](C(=O)N[C@@H](Cc1ccc(O)cc1)C(N)=O)[C@@H](C)O)C(C)C)[C@@H](C)O
notes: also called compound 71

target: T1, human calcitonin receptor (human, UniProt P30988 25-474); experiment: cell-based or functional assay
T1 sequence (looked up): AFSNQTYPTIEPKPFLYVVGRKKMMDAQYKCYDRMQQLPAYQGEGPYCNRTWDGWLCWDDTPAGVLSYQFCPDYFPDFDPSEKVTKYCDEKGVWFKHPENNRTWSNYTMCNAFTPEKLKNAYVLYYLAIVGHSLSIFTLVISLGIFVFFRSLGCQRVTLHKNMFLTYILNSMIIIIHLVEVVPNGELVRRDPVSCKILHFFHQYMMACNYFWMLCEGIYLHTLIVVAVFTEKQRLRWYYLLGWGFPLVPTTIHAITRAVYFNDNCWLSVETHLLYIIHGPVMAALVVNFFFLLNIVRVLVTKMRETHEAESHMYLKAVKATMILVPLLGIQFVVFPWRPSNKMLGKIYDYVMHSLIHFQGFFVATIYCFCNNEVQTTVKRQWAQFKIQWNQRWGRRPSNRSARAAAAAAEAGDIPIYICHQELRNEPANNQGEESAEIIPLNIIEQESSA

Row | Binder | hCTR funct. EC50
1 | B1 | 8.17 nM
2 | B2 | 2.14 nM
3 | B3 | 7.37 nM
4 | B4 | 5.49 nM
5 | B5 | 0.554 nM
6 | B6 | 0.527 nM
